Laboratory results published in US20060026702A1, “Phosphoinositide 3-kinase mediated inhibition of GPCRs” (DUKE UNIVERSITY, priority 2002, published 2006).

Experiments:
[1] = target: T1, βARK1 (Bos taurus, UniProt P21146); test: Co-immunoprecipitation and GST pull-down with purified βARK1; assay type: binding; settings: immunoprecipitated FLAG-HEAT or PI3KΔHEAT-HA
T1 construct: gift from Dr. Robert Lefkowitz
T1 sequence (P21146 1-689): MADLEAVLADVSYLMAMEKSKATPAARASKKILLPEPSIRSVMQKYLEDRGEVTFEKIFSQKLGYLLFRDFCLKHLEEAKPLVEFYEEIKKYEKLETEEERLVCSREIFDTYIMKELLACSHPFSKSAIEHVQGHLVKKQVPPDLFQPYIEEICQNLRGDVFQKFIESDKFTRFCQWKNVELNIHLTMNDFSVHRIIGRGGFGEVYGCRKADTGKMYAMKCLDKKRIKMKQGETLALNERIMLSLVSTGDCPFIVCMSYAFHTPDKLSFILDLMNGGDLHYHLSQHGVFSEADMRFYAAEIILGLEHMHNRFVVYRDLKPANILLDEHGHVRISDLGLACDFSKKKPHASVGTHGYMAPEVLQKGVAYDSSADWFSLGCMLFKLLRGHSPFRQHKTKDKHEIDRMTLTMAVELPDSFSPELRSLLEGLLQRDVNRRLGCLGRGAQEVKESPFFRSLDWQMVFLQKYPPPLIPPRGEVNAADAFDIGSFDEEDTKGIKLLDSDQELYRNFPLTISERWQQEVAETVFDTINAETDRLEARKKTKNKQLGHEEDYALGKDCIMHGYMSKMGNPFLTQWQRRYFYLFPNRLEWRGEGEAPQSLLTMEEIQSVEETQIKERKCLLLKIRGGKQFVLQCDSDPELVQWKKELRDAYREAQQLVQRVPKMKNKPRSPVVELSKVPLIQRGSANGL
Description: GST Fusion Protein Expression and Pull-down Experiments—Plasmid DNAs were transformed in Escherichia coli BL21 cells. Overnight cultures were grown in LB medium supplemented with ampicillin (100 μg/ml), diluted to an A600 of 0.2 in the same medium and grown for another 1 hr at 37° C. Cultured cells were then induced with 0.1 mM isopropyl-1-thio-β-D-galactopyranoside for 2 hr. Cell were then pelleted, washed once with 1× phosphate-buffered saline and resuspended in 1× phosphate-buffered saline containing 1 mM phenylmethylsulfonyl fluoride, 2 mg/ml lysozyme and incubated for 15 min on ice. Cells were lysed by adding Triton X-100 1%. Solublized cells were incubated with DNase (300 units) for 15 min on ice and centrifuged at 13,000 rpm for 10 min.
Glutathione-Sepharose beads were added to the supernatant and gently agitated at 4° C. for 2 hr. Beads were washed three times with ice cold 1×PBS containing 1% Triton X-100 followed by three washes with cold PBS without detergent. Protein concentration was determined using a DC protein assay kit (Bio Rad), and the integrity of the fusion protein was analyzed by SDS-polyacrylamide gel electrophoresis and Coomassie staining.
The beads were spun and washed three times with binding buffer followed by three washes with binding buffer without detergent. The beads were resuspended in SDS gel loading buffer and resolved by gel electrophoresis, immunblotting and detection was carried out described later.
FLAG-HEAT and PI3KΔHEAT proteins were immunoprecipitated from cell extracts using monoclonal FLAG and HA antibodies respectively, fractionated by SDS-PAGE and analyzed by immunoblotting with βARK1 monoclonal antibody. […] Levels of expression of HEAT and PI3KΔHEAT proteins were similar (FIG. 8B, lower panel).
To investigate whether there was a direct physical interaction between the HEAT domain of PI3K and βARK1, GST-HEAT fusion protein containing 535-732 amino acid residues of PI3Kγ was produced, which including the entire HEAT domain and flanking upstream 10 amino acids and downstream 7 amino acids. […]

[2] = target: T2, βARK1/PI3K interaction (Bos taurus, UniProt P21146); test: βARK1 associated PI3K activity in HEK 293 cells co-transfected with HEAT or PI3KΔHEAT; assay type: cell-based; settings: 4 μg cDNA co-transfected with βARK1
T2 construct: recognizes both full length βARK1 and the βARKct; expressed in transfected cells; host or cells: HEK 293
T2 sequence (P21146 1-689): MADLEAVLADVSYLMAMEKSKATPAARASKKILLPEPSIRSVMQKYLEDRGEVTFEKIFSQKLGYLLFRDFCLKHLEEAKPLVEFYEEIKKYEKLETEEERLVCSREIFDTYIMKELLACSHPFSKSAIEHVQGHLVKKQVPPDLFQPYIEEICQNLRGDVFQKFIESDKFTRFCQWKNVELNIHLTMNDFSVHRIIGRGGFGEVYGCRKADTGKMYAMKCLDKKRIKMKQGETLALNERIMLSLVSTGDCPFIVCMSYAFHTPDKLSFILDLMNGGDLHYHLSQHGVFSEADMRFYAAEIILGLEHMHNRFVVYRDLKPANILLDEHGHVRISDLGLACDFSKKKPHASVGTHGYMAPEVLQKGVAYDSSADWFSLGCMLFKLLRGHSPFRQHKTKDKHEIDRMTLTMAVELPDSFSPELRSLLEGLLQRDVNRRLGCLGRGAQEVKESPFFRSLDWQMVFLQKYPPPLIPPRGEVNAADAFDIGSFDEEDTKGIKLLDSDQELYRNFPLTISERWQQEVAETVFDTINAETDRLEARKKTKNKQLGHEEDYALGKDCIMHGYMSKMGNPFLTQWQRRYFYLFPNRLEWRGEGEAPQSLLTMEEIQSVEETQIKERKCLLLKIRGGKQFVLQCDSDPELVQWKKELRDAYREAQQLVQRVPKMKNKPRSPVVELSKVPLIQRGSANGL
Description: The present inventors determined that overexpression of the 197 amino acid HEAT domain of PI3K competed for endogenous PI3K binding to βARK1 in living cells. HEK 293 cells were co-transfected with plasmids containing the βARK1 cDNA (2 μg) and increasing concentrations of the HEAT domain cDNA (ranging from 0 to 6 μg). […] The maximal reduction of βARK1 associated PI3K activity occurred when cells were co-transfected with 4 μg of HEAT cDNA (FIG. 9B). Summary results of n=5 experiments. *, p<0.0005. The data was normalized to βARK1 associated PI3K activity in cells transfected with βARK1 only. Furthermore, FLAG tagged HEAT protein co-immunoprecipitated with βARK1 monoclonal antibodies in the co-transfected HEK 293 cells.
The absence of the HEAT domain in an otherwise intact PI3K molecule affected the association of βARK1 with endogenous PI3K in cells. HEK 293 cells were co-transfected with plasmids containing cDNAs for βARK1 (2 μg), βARK1 plus HEAT (4 μg), and βARK1 plus PI3KΔHEAT (4 μg). Cell lysates were immunoprecipitated with a βARK1 monoclonal antibody and assayed for the associated PI3K activity. Expression of PI3KΔHEAT had no effect on the endogenous βARK1/PI3K interaction, whereas overexpression of HEAT abolished this interaction (FIGS. 9C and 9D). […] The data was normalized to βARK1 associated PI3K activity in cells transfected with βARK1 only.
Cytosolic and membrane fractions were prepared and analyzed for βARK1 associated PI3K activity. […] Membrane fractions were prepared from the HEK293 cells co-transfected with the βARK1 (2 μg), βARK1 and HEAT domain (4 μg) containing plasmids.

[3] = Catalytic (lipid kinase) activity of PI3K mutant; assay type: biochemical; settings: compared with wild type PI3K
From the text: PI3KΔHEAT was constructed using 2 PCR reactions that selectively amplified regions of PI3K upstream and downstream from the HEAT domain (FIG. 8a). The region of PI3K upstream from HEAT was amplified using the forward primer (5′-[…]-3′) containing a BamHI site and Kozak consensus sequence, and the reverse primer (5′-[…]-3′) containing a SacI site. The region of PI3K downstream of the HEAT domain was amplified using the forward primer (5′-[…]-3′) containing a SacI site and the reverse primer (5′-[…]-3′) containing a BamHI site and a consensus stop codon. The upstream and downstream regions of PI3K were separately subcloned in the zero-blunt TOPO vector and sequence was verified by dideoxy sequencing. Following digestion with the restriction enzymes BamHI/SacI, a three fragment ligation was carried with the mammalian expression vector pRK5, to generate the plasmid containing the PI3KΔHEAT cDNA (FIG. 8a). […] The plasmids containing cDNAs encoding βARK1, FLAG-β2AR, HA-β2AR and p110γ have been described previously.

[4] = target: T3, PI3K (Homo sapiens, UniProt P48736); test: βARK1 associated PI3K activity (lipid kinase assay) in transfected NIH-3T3 cells; assay type: cell-based, Mouse; settings: co-transfected βARKct cDNA; isoproterenol 2 min
T3 construct: expressed in transfected cells; host or cells: NIH-3T3
Description: (§1) Cell Culture—Mouse NIH-3T3 and HEK293 cells were maintained in either Iscoves modified Dulbecco's medium or minimal essential medium (MEM) supplemented with 10% fetal bovine serum and 1:100 penicillin-streptomycin (10,000 U/ml) at 37° C. Cells were seeded at a density of ˜1-3×10^5 cells/35 mm^2 dish and at 70-80% confluence were transiently transfected using the transfection reagent FUGENE6 (ROCHE) or calcium phosphate precipitation. Cells were harvested 24 hours after transfection, re-plated in triplicate, allowed to grow overnight and serum starved for 2-4 hours before agonist stimulation.
(§2) Cytosolic and Membrane Fractionation—Cell monolayers were scraped in 1 ml of buffer containing 25 mM Tris-HCl (pH 7.5), 5 mM EDTA, 5 mM EGTA, 1 mM phenylmethylsulfonyl fluoride, 2 μg/ml each of leupeptin and aprotinin and disrupted further by using Dounce homogenizer. Intact cells and nuclei were removed by-centrifugation at 1,000×g for 5 min. The collected supernatant was further subject to a centrifugation at 38,000×g for 25 min. The pellet was resuspended in lysis buffer (1% Nonidet P-40, 10% glycerol, 137 mM NaCl, 20 mM Tris-Cl (ph 7.4), 1 mM phenylmethylsulfonyl fluoride, 20 mM NaF, 1 mM sodium pyrophosphate, 1 mM sodium orthovanadate and 2 μg/ml each of aprotinin and leupeptin) and used as membrane fraction and the supernatant was diluted in lysis buffer and used as the cytosolic fraction.
(§3) Lipid Kinase Assays—Cells were lysed in lysis buffer and 2 mg cytosolic extract was used for immunoprecipitation with either the C5/1 monoclonal antibody directed against βARK1, the anti-FLAG M2 monoclonal antibody (Sigma) or antibodies to p110γ, or p110β (Santa Cruz Biotechnology) and protein G-agarose. Sedimented beads were then washed once with 1 ml of lysis buffer, thrice with 1 ml of phosphate-buffered saline (1× phosphate-buffered saline, 1% NP-40 and 100 μM sodium orthovanadate), thrice with 1 ml of Tris/LiCl (100 mM Tris-HCl (pH 7.4), 5 mM LiCl and 100 μM sodium orthovanadate) and twice with TNE (10 mM Tris Cl (pH 7.4), 150 mM NaCl, 5 mM EDTA and 100 μM sodium orthovanadate). Samples were then resuspended in 50 ml of TNE and 10 μl of 100 mM MgCl2 was added to each sample. The substrate, phosphatidylinositol (PI, Avanti), was prepared by drying 50 μl of the 10 mg/ml stock (PI in chloroform) in an eppendorf tube with a stream of air and adding 250 μl of TE (10 mM Tris Cl (pH 7.4) and 1 mM EDTA). The PI was then suspended by sonication in an ice bath for 3 minutes. 10 p, of the PI solution and 11 μl of ATP solution (440 μM cold ATP and 1 μCi/μl of [γ-32P]ATP) were added to each sample. […] Autoradiography of dried plates was used to detect signals, and PIP was quantified by phosphorimaging. […] Values are expressed as fold increase/decrease relative to wild-type/control.

[5] = target: T4, PI3K (Homo sapiens, UniProt P48736, DEL30-30/Q459R); test: as above; assay type: cell-based, Mouse; settings: co-transfected βARKct cDNA
T4 construct: expressed in transfected cells; host or cells: NIH-3T3
T4 sequence (P48736 with tags, fused parts or gaps DEL30-30/Q459R): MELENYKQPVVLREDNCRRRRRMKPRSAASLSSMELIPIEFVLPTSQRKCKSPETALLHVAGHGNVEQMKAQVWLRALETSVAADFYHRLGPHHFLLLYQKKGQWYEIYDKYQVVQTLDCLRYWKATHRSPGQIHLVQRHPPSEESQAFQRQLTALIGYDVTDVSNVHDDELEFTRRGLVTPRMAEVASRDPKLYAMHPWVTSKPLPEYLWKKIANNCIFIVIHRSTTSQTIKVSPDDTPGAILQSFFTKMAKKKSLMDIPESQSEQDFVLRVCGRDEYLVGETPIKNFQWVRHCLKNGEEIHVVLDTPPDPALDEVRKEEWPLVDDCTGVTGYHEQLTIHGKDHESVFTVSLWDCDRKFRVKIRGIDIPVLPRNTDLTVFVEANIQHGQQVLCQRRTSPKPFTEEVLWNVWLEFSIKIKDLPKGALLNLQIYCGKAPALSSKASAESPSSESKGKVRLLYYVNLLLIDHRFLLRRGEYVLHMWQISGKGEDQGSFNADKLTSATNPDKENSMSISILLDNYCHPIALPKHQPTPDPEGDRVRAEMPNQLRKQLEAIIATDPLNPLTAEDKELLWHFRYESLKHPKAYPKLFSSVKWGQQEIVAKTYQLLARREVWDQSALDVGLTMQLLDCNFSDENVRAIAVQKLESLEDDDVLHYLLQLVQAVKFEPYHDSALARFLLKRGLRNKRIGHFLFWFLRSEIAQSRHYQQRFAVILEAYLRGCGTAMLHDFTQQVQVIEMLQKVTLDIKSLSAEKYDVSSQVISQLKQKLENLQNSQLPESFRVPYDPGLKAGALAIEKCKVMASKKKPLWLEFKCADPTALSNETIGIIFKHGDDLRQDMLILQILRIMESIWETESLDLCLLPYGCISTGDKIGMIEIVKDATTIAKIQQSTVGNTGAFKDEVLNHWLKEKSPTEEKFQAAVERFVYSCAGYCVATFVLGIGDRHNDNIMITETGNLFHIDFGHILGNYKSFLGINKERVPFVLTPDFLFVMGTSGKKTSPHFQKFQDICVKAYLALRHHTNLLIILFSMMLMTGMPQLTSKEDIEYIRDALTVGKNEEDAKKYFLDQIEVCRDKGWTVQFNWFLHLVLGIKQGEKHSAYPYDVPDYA
Description: as §1, §2, §3

T3 sequence (P48736 with tags, fused parts or gaps DEL30-30/Q459R): as above

Molecule | association with purified βARK1 (immune complexes from HEK 293 extracts) [1] | endogenous βARK1/PI3K interaction [2] | catalytic activity [3] | agonist-dependent translocation of βARK1 associated PI3K activity to the membrane [4] | βARK1 associated PI3K activity in the cytosolic fraction [5]
PI3KΔHEAT: HA tagged PI3K mutant with a deletion of the HEAT domain (protein) MELENYKQPVVLREDNCRRRRRMKPRSAASLSSMELIPIEFVLPTSQRKCKSPETALLHVAGHGNVEQMKAQVWLRALETSVAADFYHRLGPHHFLLLYQKKGQWYEIYDKYQVVQTLDCLRYWKATHRSPGQIHLVQRHPPSEESQAFQRQLTALIGYDVTDVSNVHDDELEFTRRGLVTPRMAEVASRDPKLYAMHPWVTSKPLPEYLWKKIANNCIFIVIHRSTTSQTIKVSPDDTPGAILQSFFTKMAKKKSLMDIPESQSEQDFVLRVCGRDEYLVGETPIKNFQWVRHCLKNGEEIHVVLDTPPDPALDEVRKEEWPLVDDCTGVTGYHEQLTIHGKDHESVFTVSLWDCDRKFRVKIRGIDIPVLPRNTDLTVFVEANIQHGQQVLCQRRTSPKPFTEEVLWNVWLEFSIKIKDLPKGALLNLQIYCGKAPALSSKASAESPSSESKGKVRLLYYVNLLLIDHRFLLRRGEYVLHMWQISGKGEDQGSFNADKLTSATNPDKENSMSISILLDNYCHPIALPKHQPTPDPEGDRGTAMLHDFTQQVQVIEMLQKVTLDIKSLSAEKYDVSSQVISQLKQKLENLQNSQLPESFRVPYDPGLKAGALAIEKCKVMASKKKPLWLEFKCADPTALSNETIGIIFKHGDDLRQDMLILQILRIMESIWETESLDLCLLPYGCISTGDKIGMIEIVKDATTIAKIQQSTVGNTGAFKDEVLNHWLKEKSPTEEKFQAAVERFVYSCAGYCVATFVLGIGDRHNDNIMITETGNLFHIDFGHILGNYKSFLGINKERVPFVLTPDFLFVMGTSGKKTSPHFQKFQDICVKAYLALRHHTNLLIILFSMMLMTGMPQLTSKEDIEYIRDALTVGKNEEDAKKYFLDQIEVCRDKGWTVQFNWFLHLVLGIKQGEKHSAYPYDVPDYA | not | no effect | indistinguishable from wild type PI3K |  | 
βARKct: carboxyl terminus of βARK1 that attenuates the Gβγ dependent signaling (protein) GIKLLDSDQELYRNFPLTISERWQQEVAETVFDTINAETDRLEARKKTKNKQLGHEEDYALGKDCIMHGYMSKMGNPFLTQWQRRYFYLFPNRLEWRGEGEAPQSLLTMEEIQSVEETQIKERKCLLLKIRGGKQFVLQCDSDPELVQWKKELRDAYREAQQLVQRVPKMKNKPRSPVVELSKVPLIQRGSANGL |  |  |  | abolished | loss
